Data published in PMC8324060 (Science Advances, 2021).

How the values were obtained:
[1] = biological target: Human MLH1 C-terminal domain (amino acids 486 to 756) (human) (UniProt P40692); experiment: ITC
[2] = biological target: recombinant MutLα (MLH1-PMS2) (human, UniProt P40692;P54278); experiment: pull-down
Sequence of recombinant MutLα (MLH1-PMS2) (P40692 whole entry, chain 1 of 2): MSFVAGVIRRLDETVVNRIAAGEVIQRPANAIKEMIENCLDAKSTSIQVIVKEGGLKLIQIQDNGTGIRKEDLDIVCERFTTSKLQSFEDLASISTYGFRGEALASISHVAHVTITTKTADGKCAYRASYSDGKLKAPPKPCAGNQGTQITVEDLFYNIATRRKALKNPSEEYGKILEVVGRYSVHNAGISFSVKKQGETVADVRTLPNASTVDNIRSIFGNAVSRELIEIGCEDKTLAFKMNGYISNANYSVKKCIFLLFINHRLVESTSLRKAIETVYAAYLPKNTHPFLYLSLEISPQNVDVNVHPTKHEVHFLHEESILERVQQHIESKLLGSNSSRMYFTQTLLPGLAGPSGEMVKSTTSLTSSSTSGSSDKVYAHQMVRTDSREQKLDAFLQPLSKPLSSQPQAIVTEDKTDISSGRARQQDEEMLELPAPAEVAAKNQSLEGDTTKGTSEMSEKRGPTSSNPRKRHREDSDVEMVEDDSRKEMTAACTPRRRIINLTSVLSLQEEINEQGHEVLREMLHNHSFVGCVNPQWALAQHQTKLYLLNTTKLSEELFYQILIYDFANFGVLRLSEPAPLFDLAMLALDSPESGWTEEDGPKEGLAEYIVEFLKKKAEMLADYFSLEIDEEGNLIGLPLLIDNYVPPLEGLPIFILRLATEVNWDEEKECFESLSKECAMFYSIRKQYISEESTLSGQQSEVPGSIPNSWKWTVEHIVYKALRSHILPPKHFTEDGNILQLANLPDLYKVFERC
Sequence of recombinant MutLα (MLH1-PMS2) (P54278 whole entry, chain 2 of 2): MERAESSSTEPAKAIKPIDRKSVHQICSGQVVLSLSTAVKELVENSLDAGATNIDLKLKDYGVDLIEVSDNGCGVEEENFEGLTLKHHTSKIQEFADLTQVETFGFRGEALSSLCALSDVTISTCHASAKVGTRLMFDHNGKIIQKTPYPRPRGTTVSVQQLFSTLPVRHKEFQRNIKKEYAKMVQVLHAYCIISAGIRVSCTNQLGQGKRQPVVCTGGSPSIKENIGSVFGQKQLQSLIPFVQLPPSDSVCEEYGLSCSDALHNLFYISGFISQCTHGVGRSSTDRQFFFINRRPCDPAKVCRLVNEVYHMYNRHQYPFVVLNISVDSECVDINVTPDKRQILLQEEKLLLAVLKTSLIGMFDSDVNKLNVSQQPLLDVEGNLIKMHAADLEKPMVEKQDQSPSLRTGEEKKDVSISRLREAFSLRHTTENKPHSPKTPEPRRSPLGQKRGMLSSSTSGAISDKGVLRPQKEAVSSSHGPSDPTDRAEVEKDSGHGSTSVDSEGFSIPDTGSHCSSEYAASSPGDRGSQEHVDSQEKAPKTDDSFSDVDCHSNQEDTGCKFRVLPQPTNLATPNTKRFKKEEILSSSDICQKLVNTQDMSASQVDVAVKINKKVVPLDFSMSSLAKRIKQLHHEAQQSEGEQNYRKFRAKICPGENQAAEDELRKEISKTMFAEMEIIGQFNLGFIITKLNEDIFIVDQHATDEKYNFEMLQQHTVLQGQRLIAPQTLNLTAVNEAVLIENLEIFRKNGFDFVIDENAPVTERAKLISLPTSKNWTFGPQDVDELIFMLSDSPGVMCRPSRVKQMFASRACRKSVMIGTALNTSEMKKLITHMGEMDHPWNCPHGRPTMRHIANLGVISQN

Sequence of Human MLH1 C-terminal domain (amino acids 486 to 756) (human) (P40692 486-756): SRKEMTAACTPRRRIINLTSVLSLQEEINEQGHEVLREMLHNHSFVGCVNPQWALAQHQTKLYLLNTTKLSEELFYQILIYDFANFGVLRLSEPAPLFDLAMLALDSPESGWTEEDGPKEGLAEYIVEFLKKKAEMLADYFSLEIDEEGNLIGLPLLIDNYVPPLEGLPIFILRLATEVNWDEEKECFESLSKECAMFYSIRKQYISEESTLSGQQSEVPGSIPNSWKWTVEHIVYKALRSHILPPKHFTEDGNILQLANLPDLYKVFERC

Row | Kd [1] [nM] | binding result [2] | Molecule
1 | 3200 | – | FAN1 MIM 12-mer peptide (wt)
2 | 2800 | – | FAN1 MIP 8-mer peptide (wt)
3 | 70 | – | FAN1-derived 42-mer peptide containing MIP and MIM (wt)
4 | – | binds | GST-FAN1 (amino acids 118 to 177) (domain or fragment) KREVKQKISPYFKSNDVVCKNQDELRNRSVKVICLGSLASKLSRKYVKAKKSIDKDEEFA
